Test [1] addresses extracellular domain of SARS-CoV-2 S protein (S-ECD), 1-1208 aa, with two proline substitutions, GSAS … (SARS-CoV-2, Wuhan-Hu-1, UniProt P0DTC2, proline substitution at residue 986 | proline substitution at residue 987 | …). The test is described as follows: cryo-EM structure. To be noted: both partners purified.
Test [2] deals with SARS-CoV-2 Spike-Trimer protein (Shuimu BioSciences Ltd.) (SARS-CoV-2, Wuhan-Hu-1 assumed, UniProt P0DTC2). The test is described as follows: BLI. To be noted: both partners purified.
Test [3] concerns the target SARS-CoV-2 Spike protein on transfected CHO-K1 cells (GenScript RD00819) (SARS-CoV-2, UniProt P0DTC2). Kind of test: cell-based or functional assay.
Test [4] concerns the target recombinant SARS-CoV-2 Spike RBD (catalogue number not stated for this experiment) (SARS-CoV-2, UniProt P0DTC2). The test is described as follows: ELISA. To be noted: both partners purified.
Test [5] addresses recombinant SARS-CoV-2 Spike S1 + S2 protein (40589-V08B1, Sino Biological) (SARS-CoV-2, Wuhan-1 (MN908947), UniProt P0DTC2). The test is described as follows: ELISA. To be noted: both partners purified. For orientation: In an ELISA, binding on a coated surface is turned into a signal by an enzyme label.

Bounds are passed on as bounds.

B1: CA521^FALA (human IgG4 monoclonal antibody with the F234A/L235A mutation) (antibody, V domains shown)
VH: EVQLQQWGAGLLKPSETLSLTCAVYGGSFSGYYWSWIRQPPGKGLEWIGEVNHSGSTNYNPSLKSRVTISVDTSKNQLSLKLNSVTAADTAVYYCARGNTMVRGVIIPFEYWDKGTLVTVSS
VL: EIVLTQSPATLSLSPGERATLSCRASQSVSSYLAWYQQKPGQAPRLLIYDASNRATGIPARFSGSGSGTDFTLTISSLEPEDFAVYYCQQRSNWPLTFGGGTKVEIK
notes: also called CA521^FALA IgG; full-length CA521^FALA IgG; source: Expi-CHO Expression system, purified (protein A, Q FF, Capto S ImpAct)
As for B1, the binding result in test [1] is given as “binds”. In addition, the Kd (in general, a measure of binding affinity in units of concentration) in test [2] is less than 0.001 nM. Further, the “IC50 of inhibition of SARS-CoV-2 pseudovirus transduction into Huh-7 cells” value in test [3] stood at 0.121 nM. The half-inhibitory concentration (IC50) (usually the concentration needed to halve the response being measured) in test [4] was 0.343 nM. Besides, the EC50 – broadly, the concentration that produces a half-maximal response – in test [5] is 0.014 nM.

Values taken from PMC8065039 (Communications Biology, 2021).
